The text below walks through data of patent publication US7071301.

Some targets named below: ERR Mutant 1 (mouse) (UniProt Q09143); ERR Mutant 10 (mouse) (UniProt Q09143); ERR Mutant 11 (mouse) (UniProt Q09143); ERR Mutant 2 (mouse) (UniProt Q09143); ERR Mutant 3 (mouse) (UniProt Q09143); ERR Mutant 4 (mouse) (UniProt Q09143); ERR Mutant 5 (mouse) (UniProt Q09143); ERR Mutant 6 (mouse) (UniProt Q09143); ERR Mutant 7 (mouse) (UniProt Q09143); ERR Mutant 8 (mouse) (UniProt Q09143); ERR Mutant 9 (mouse) (UniProt Q09143); human H13 (human) (UniProt P30825).
Sequence of UniProt P30825 (P30825 other isoform, or with tags, fused parts or gaps): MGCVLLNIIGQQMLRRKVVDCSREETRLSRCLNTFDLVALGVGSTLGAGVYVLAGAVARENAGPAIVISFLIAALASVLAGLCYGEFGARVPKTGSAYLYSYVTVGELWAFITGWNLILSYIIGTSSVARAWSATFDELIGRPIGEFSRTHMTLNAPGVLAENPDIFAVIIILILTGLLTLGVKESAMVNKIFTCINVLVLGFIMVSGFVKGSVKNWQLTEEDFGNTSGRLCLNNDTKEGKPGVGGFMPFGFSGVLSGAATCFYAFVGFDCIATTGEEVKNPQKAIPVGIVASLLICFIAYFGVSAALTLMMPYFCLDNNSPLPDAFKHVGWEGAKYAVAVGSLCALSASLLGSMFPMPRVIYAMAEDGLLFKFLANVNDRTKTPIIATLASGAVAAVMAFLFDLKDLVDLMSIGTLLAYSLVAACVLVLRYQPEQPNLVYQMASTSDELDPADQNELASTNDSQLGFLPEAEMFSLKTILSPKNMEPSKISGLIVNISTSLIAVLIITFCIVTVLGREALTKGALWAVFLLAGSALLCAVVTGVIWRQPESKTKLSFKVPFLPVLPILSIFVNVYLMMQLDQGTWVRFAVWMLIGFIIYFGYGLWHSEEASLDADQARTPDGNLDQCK

Test in all cases: cell-based or functional assay
The target of test [1] is Chimera I (mouse-human chimeric receptor, first part from ERR) (mouse; human).
Test [2] concerns the target Chimera II (mouse-human chimeric receptor, last part from ERR) (human; mouse).
The target of test [3] is Chimera III (H13 with NcoI-NcoI fragment from ERR) (human / mouse).
Test [4] addresses murine ecotropic retroviral receptor (ERR) (mouse) (UniProt Q09143).

On to “recombinant MuLV-E, ψCRE/BAG virions (from UniProt P03385 34-469)”, for which the numbers of G418-resistant colonies in test [1] was 1000 colonies; in [2] it was 0 colonies; in [3], 1000 colonies; with human H13 (human) it was 0 colonies; in [4], more than 1000 colonies. The colonies with ERR Mutant 1 (mouse), with ERR Mutant 10 (mouse), with ERR Mutant 11 (mouse), in the test with ERR Mutant 2 (mouse), with ERR Mutant 3 (mouse) and in the test with ERR Mutant 4 (mouse) was 500 colonies throughout. In addition, the colonies with ERR Mutant 5 (mouse) stood at 500 colonies; with ERR Mutant 6 (mouse) it was 500 colonies; with ERR Mutant 7 (mouse) it was 0 colonies; with ERR Mutant 8 (mouse), 500 colonies; in the test with ERR Mutant 9 (mouse), 500 colonies.
